Measurements as given in the supplement of paper PMC10065799, “High-throughput profiling of sequence recognition by tyrosine kinases and SH2 domains using bacterial peptide display” (eLife, 2023).
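Further: 11-residue human phosphosite peptides and single-mutation variants displayed on the E. coli surface, counted by deep sequencing, each peptide's frequency after selection divided by its frequency in the unselected input library; frequency after pTyr selection over input frequency; kinase dosed for 20-30% of maximal phosphorylation in three min.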

Each sequence was assayed against Hck (UniProt P08631) (assay: phosphorylation enrichment, bacterial display (enrichment ratio); higher = better substrate or ligand; peptides without Tyr show the background).
Hck, sequence (P08631 whole entry, looked up): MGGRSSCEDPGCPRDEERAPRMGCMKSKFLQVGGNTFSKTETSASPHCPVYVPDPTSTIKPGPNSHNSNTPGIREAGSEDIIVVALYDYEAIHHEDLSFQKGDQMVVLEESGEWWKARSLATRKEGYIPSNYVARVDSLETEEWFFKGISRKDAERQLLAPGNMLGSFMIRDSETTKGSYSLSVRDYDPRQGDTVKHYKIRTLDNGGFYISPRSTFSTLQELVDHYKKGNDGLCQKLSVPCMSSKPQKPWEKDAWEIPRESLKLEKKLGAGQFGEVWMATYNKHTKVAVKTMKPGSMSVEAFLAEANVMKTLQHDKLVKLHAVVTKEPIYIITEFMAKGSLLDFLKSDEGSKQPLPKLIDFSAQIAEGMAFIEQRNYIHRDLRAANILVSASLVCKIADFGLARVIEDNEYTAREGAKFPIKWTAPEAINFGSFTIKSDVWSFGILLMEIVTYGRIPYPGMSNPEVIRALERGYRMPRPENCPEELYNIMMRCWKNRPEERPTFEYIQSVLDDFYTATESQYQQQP
RMLREYQELMS [KRT74_Y425] gave a phosphorylation enrichment of 0.532.
VSYDEYRYRSF [CFTR_Y515_V520F] was tested, and the phosphorylation enrichment was 0.598.
Work on TFGVLYKARNK [CDK2_Y19_V18L_YF] yielded a phosphorylation enrichment of 0.561.
IRKDLYSNNVL [ACTC1_Y296_A297S] was tested, and the phosphorylation enrichment was 0.419.
Work on VNRSGYTLIRK [ATP6V0A2_Y688] yielded a phosphorylation enrichment of 0.429.
Work on GEDEPYAEPFA [APBA1_Y183_S184A_YF] yielded a phosphorylation enrichment of 0.593.
Sequence ISKTWYSAEQF [CD207_Y217_P213S] has a phosphorylation enrichment of 0.481.
RLKAKYPAATG [GLI3_Y933_A934P] gave a phosphorylation enrichment of 0.787.
RRYLYYYSYLL [PTEN_Y177_V175L] gave a phosphorylation enrichment of 1.17.
For ETGEPCRLSPE [EIF4G1_Y311_Y311C], the phosphorylation enrichment was 0.689.
With SSVKPYRVFCD [FGB_Y266_YF] the phosphorylation enrichment was 0.432.
Work on RENGPYYTSYP [GDAP2_Y487] yielded a phosphorylation enrichment of 1.98.
VEDPEYAVTQP [STOML2_Y124_L129P] gave a phosphorylation enrichment of 0.608.
QLPRGYISILV [BAG3_Y205_P209L] was tested, and the phosphorylation enrichment was 0.675.
HITQVYGFFDE [PPP2CA_Y127_Q122H_YF] was tested, and the phosphorylation enrichment was 7.13.
KDHPDYEYQPR [SOX9_Y172_K173E] gave a phosphorylation enrichment of 0.588.
KDIENYIQDGK [RAD50_Y964] gave a phosphorylation enrichment of 0.45.
Work on MCVKSYTIHFS [F5_Y2153_Y2149C_YF] yielded a phosphorylation enrichment of 0.546.
Sequence HYVYYYSYLLK [PTEN_Y178_R173H] has a phosphorylation enrichment of 3.19.
With VNFGAYINDFN [GLB1_Y488_K493N_YF] the phosphorylation enrichment was 0.46.
NALAQYQEMEK [BBS4_Y395] was tested, and the phosphorylation enrichment was 0.612.
NPQKSCFIRLF [WAS_Y83_Y83C_YF] showed a phosphorylation enrichment of 0.526.
NTSKMYIPHTD [EXPH5_Y782_D777N] showed a phosphorylation enrichment of 0.462.
FSMGCYEISLG [HMGCL_Y198_YF] was tested, and the phosphorylation enrichment was 0.836.
Sequence KPGLVYNKVNP [SPRED3_Y72] has a phosphorylation enrichment of 0.603.
Sequence DQNVEYKGTVW [FHL1_Y117] has a phosphorylation enrichment of 0.466.
For LYNQDYPIHSV [GATM_Y227], the phosphorylation enrichment was 0.966.
With NDQANYSLNTD [ADA_Y290] the phosphorylation enrichment was 0.465.
For GVYSRYFTTYD [CLCA1_Y661], the phosphorylation enrichment was 3.33.
For EFNINYNNELP [THG1L_Y228], the phosphorylation enrichment was 0.429.
In the case of LRLFSYSTTIR [CYP7B1_Y365_S363F], the phosphorylation enrichment is reported as 0.57.
Work on NTGNFYDLFGG [PTPN11_Y63_D61N_YF] yielded a phosphorylation enrichment of 4.7.
With KDHPDYKFPPR [SOX10_Y171_Q174P_YF] the phosphorylation enrichment was 0.382.

What follows are sequences tested against Jak2 (UniProt O60674) in the same assay as above.
Jak2, sequence (O60674 whole entry, looked up): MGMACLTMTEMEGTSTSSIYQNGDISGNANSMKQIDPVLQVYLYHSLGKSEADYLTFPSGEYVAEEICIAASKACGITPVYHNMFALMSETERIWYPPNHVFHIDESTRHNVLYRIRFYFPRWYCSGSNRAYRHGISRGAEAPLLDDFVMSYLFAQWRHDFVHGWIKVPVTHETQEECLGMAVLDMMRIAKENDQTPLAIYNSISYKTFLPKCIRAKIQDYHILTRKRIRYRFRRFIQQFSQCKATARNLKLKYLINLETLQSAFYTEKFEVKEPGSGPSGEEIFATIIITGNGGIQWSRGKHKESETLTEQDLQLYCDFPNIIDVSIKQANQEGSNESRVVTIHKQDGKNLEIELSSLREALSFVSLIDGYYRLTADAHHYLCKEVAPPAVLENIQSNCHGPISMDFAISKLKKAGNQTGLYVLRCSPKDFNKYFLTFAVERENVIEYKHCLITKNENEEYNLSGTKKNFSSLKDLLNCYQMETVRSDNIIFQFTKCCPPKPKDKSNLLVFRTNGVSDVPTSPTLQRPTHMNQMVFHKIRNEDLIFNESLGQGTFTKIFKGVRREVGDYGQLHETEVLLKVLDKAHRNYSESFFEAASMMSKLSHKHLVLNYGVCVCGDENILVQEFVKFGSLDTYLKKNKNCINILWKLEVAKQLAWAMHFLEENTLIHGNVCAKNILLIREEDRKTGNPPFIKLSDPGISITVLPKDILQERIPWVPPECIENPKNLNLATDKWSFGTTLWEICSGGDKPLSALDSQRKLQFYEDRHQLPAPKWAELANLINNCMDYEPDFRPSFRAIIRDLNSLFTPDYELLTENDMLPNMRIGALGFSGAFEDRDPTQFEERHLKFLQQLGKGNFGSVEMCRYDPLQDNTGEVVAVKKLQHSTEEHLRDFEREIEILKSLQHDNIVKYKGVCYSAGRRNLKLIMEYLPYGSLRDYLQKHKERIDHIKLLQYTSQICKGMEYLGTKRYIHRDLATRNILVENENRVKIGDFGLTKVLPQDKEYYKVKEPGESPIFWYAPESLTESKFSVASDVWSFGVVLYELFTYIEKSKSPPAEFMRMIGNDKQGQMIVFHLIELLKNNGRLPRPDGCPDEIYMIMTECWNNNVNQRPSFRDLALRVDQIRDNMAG
With RMLREYQELMS [KRT74_Y425] the phosphorylation enrichment was 0.611.
With VSYDEYRYRSF [CFTR_Y515_V520F] the phosphorylation enrichment was 0.983.
TFGVLYKARNK [CDK2_Y19_V18L_YF] gave a phosphorylation enrichment of 0.796.
For IRKDLYSNNVL [ACTC1_Y296_A297S], the phosphorylation enrichment was 0.471.
Work on VNRSGYTLIRK [ATP6V0A2_Y688] yielded a phosphorylation enrichment of 0.429.
GEDEPYAEPFA [APBA1_Y183_S184A_YF] showed a phosphorylation enrichment of 1.47.
ISKTWYSAEQF [CD207_Y217_P213S] showed a phosphorylation enrichment of 0.604.
RLKAKYPAATG [GLI3_Y933_A934P] gave a phosphorylation enrichment of 0.905.
For RRYLYYYSYLL [PTEN_Y177_V175L], the phosphorylation enrichment was 3.29.
In the case of ETGEPCRLSPE [EIF4G1_Y311_Y311C], the phosphorylation enrichment is reported as 1.15.
SSVKPYRVFCD [FGB_Y266_YF] was tested, and the phosphorylation enrichment was 0.678.
Sequence RENGPYYTSYP [GDAP2_Y487] has a phosphorylation enrichment of 0.863.
VEDPEYAVTQP [STOML2_Y124_L129P] gave a phosphorylation enrichment of 1.32.
Work on QLPRGYISILV [BAG3_Y205_P209L] yielded a phosphorylation enrichment of 1.07.
In the case of HITQVYGFFDE [PPP2CA_Y127_Q122H_YF], the phosphorylation enrichment is reported as 1.95.
With KDHPDYEYQPR [SOX9_Y172_K173E] the phosphorylation enrichment was 0.811.
KDIENYIQDGK [RAD50_Y964] gave a phosphorylation enrichment of 0.82.
MCVKSYTIHFS [F5_Y2153_Y2149C_YF] gave a phosphorylation enrichment of 1.05.
HYVYYYSYLLK [PTEN_Y178_R173H] was tested, and the phosphorylation enrichment was 2.42.
VNFGAYINDFN [GLB1_Y488_K493N_YF] was tested, and the phosphorylation enrichment was 0.899.
NALAQYQEMEK [BBS4_Y395] gave a phosphorylation enrichment of 0.714.
Work on NPQKSCFIRLF [WAS_Y83_Y83C_YF] yielded a phosphorylation enrichment of 0.974.
Sequence NTSKMYIPHTD [EXPH5_Y782_D777N] has a phosphorylation enrichment of 0.562.
Sequence FSMGCYEISLG [HMGCL_Y198_YF] has a phosphorylation enrichment of 1.6.
In the case of KPGLVYNKVNP [SPRED3_Y72], the phosphorylation enrichment is reported as 0.936.
Sequence DQNVEYKGTVW [FHL1_Y117] has a phosphorylation enrichment of 0.938.
LYNQDYPIHSV [GATM_Y227] was tested, and the phosphorylation enrichment was 0.984.
For NDQANYSLNTD [ADA_Y290], the phosphorylation enrichment was 0.981.
With GVYSRYFTTYD [CLCA1_Y661] the phosphorylation enrichment was 1.07.
For EFNINYNNELP [THG1L_Y228], the phosphorylation enrichment was 1.07.
Sequence LRLFSYSTTIR [CYP7B1_Y365_S363F] has a phosphorylation enrichment of 1.
With NTGNFYDLFGG [PTPN11_Y63_D61N_YF] the phosphorylation enrichment was 0.796.
KDHPDYKFPPR [SOX10_Y171_Q174P_YF] gave a phosphorylation enrichment of 0.564.

Each sequence was assayed against MERTK (UniProt Q12866) in the same assay as above.
MERTK, sequence (Q12866 whole entry, looked up): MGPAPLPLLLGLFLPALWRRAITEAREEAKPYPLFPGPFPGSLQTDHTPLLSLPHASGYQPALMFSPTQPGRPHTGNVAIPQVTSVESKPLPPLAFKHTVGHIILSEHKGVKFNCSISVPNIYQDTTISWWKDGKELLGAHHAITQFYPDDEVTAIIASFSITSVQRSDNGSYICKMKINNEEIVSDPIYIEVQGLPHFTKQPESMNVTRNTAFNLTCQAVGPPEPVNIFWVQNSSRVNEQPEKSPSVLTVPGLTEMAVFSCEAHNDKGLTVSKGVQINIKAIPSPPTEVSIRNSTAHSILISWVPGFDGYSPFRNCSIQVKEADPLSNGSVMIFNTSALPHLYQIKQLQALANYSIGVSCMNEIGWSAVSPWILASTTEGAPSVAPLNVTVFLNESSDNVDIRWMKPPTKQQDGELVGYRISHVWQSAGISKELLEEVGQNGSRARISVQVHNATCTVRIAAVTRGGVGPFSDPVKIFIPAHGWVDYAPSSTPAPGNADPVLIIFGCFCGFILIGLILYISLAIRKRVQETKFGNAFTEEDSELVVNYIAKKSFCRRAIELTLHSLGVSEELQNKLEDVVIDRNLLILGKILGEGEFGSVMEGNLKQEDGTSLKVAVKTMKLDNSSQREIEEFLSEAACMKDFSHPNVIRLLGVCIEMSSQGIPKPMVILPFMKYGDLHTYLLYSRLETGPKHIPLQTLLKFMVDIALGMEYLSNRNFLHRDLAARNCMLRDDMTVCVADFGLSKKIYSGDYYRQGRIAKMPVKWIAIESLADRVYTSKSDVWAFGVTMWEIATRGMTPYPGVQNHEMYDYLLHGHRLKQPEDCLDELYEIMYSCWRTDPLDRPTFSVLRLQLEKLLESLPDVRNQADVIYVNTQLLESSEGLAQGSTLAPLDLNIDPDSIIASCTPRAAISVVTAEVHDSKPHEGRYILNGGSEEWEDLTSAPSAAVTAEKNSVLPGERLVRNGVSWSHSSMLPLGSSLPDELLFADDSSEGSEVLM
For RMLREYQELMS [KRT74_Y425], the phosphorylation enrichment was 0.527.
VSYDEYRYRSF [CFTR_Y515_V520F] showed a phosphorylation enrichment of 0.522.
TFGVLYKARNK [CDK2_Y19_V18L_YF] gave a phosphorylation enrichment of 0.343.
Sequence IRKDLYSNNVL [ACTC1_Y296_A297S] has a phosphorylation enrichment of 0.518.
VNRSGYTLIRK [ATP6V0A2_Y688] gave a phosphorylation enrichment of 0.386.
GEDEPYAEPFA [APBA1_Y183_S184A_YF] showed a phosphorylation enrichment of 0.547.
With ISKTWYSAEQF [CD207_Y217_P213S] the phosphorylation enrichment was 7.68.
With RLKAKYPAATG [GLI3_Y933_A934P] the phosphorylation enrichment was 0.639.
For RRYLYYYSYLL [PTEN_Y177_V175L], the phosphorylation enrichment was 5.8.
In the case of ETGEPCRLSPE [EIF4G1_Y311_Y311C], the phosphorylation enrichment is reported as 0.536.
Sequence SSVKPYRVFCD [FGB_Y266_YF] has a phosphorylation enrichment of 0.392.
For RENGPYYTSYP [GDAP2_Y487], the phosphorylation enrichment was 5.69.
VEDPEYAVTQP [STOML2_Y124_L129P] gave a phosphorylation enrichment of 0.473.
In the case of QLPRGYISILV [BAG3_Y205_P209L], the phosphorylation enrichment is reported as 0.611.
HITQVYGFFDE [PPP2CA_Y127_Q122H_YF] was tested, and the phosphorylation enrichment was 2.8.
Work on KDHPDYEYQPR [SOX9_Y172_K173E] yielded a phosphorylation enrichment of 0.432.
KDIENYIQDGK [RAD50_Y964] showed a phosphorylation enrichment of 0.464.
MCVKSYTIHFS [F5_Y2153_Y2149C_YF] gave a phosphorylation enrichment of 0.448.
HYVYYYSYLLK [PTEN_Y178_R173H] gave a phosphorylation enrichment of 5.74.
With VNFGAYINDFN [GLB1_Y488_K493N_YF] the phosphorylation enrichment was 0.409.
NALAQYQEMEK [BBS4_Y395] showed a phosphorylation enrichment of 0.467.
NPQKSCFIRLF [WAS_Y83_Y83C_YF] was tested, and the phosphorylation enrichment was 0.467.
NTSKMYIPHTD [EXPH5_Y782_D777N] showed a phosphorylation enrichment of 0.462.
In the case of FSMGCYEISLG [HMGCL_Y198_YF], the phosphorylation enrichment is reported as 0.866.
Sequence KPGLVYNKVNP [SPRED3_Y72] has a phosphorylation enrichment of 0.402.
DQNVEYKGTVW [FHL1_Y117] gave a phosphorylation enrichment of 0.496.
LYNQDYPIHSV [GATM_Y227] was tested, and the phosphorylation enrichment was 0.771.
In the case of NDQANYSLNTD [ADA_Y290], the phosphorylation enrichment is reported as 0.561.
For GVYSRYFTTYD [CLCA1_Y661], the phosphorylation enrichment was 3.71.
EFNINYNNELP [THG1L_Y228] showed a phosphorylation enrichment of 0.341.
LRLFSYSTTIR [CYP7B1_Y365_S363F] was tested, and the phosphorylation enrichment was 0.35.
With NTGNFYDLFGG [PTPN11_Y63_D61N_YF] the phosphorylation enrichment was 7.84.
KDHPDYKFPPR [SOX10_Y171_Q174P_YF] was tested, and the phosphorylation enrichment was 0.393.

These sequences were tested on c-Abl (mouse) in the same assay as above.
Sequence RMLREYQELMS [KRT74_Y425] has a phosphorylation enrichment of 0.663.
With VSYDEYRYRSF [CFTR_Y515_V520F] the phosphorylation enrichment was 0.916.
Work on TFGVLYKARNK [CDK2_Y19_V18L_YF] yielded a phosphorylation enrichment of 0.487.
With IRKDLYSNNVL [ACTC1_Y296_A297S] the phosphorylation enrichment was 0.444.
Work on VNRSGYTLIRK [ATP6V0A2_Y688] yielded a phosphorylation enrichment of 0.568.
With GEDEPYAEPFA [APBA1_Y183_S184A_YF] the phosphorylation enrichment was 0.814.
In the case of ISKTWYSAEQF [CD207_Y217_P213S], the phosphorylation enrichment is reported as 0.585.
RLKAKYPAATG [GLI3_Y933_A934P] showed a phosphorylation enrichment of 1.14.
For RRYLYYYSYLL [PTEN_Y177_V175L], the phosphorylation enrichment was 1.02.
In the case of ETGEPCRLSPE [EIF4G1_Y311_Y311C], the phosphorylation enrichment is reported as 1.01.
In the case of SSVKPYRVFCD [FGB_Y266_YF], the phosphorylation enrichment is reported as 0.7.
RENGPYYTSYP [GDAP2_Y487] was tested, and the phosphorylation enrichment was 1.55.
VEDPEYAVTQP [STOML2_Y124_L129P] showed a phosphorylation enrichment of 1.
Sequence QLPRGYISILV [BAG3_Y205_P209L] has a phosphorylation enrichment of 0.806.
HITQVYGFFDE [PPP2CA_Y127_Q122H_YF] was tested, and the phosphorylation enrichment was 1.69.
KDHPDYEYQPR [SOX9_Y172_K173E] gave a phosphorylation enrichment of 0.665.
Work on KDIENYIQDGK [RAD50_Y964] yielded a phosphorylation enrichment of 0.639.
For MCVKSYTIHFS [F5_Y2153_Y2149C_YF], the phosphorylation enrichment was 1.02.
HYVYYYSYLLK [PTEN_Y178_R173H] gave a phosphorylation enrichment of 2.31.
In the case of VNFGAYINDFN [GLB1_Y488_K493N_YF], the phosphorylation enrichment is reported as 0.788.
Work on NALAQYQEMEK [BBS4_Y395] yielded a phosphorylation enrichment of 0.512.
NPQKSCFIRLF [WAS_Y83_Y83C_YF] was tested, and the phosphorylation enrichment was 0.848.
NTSKMYIPHTD [EXPH5_Y782_D777N] gave a phosphorylation enrichment of 0.532.
With FSMGCYEISLG [HMGCL_Y198_YF] the phosphorylation enrichment was 0.965.
KPGLVYNKVNP [SPRED3_Y72] gave a phosphorylation enrichment of 0.675.
Sequence DQNVEYKGTVW [FHL1_Y117] has a phosphorylation enrichment of 0.843.
LYNQDYPIHSV [GATM_Y227] was tested, and the phosphorylation enrichment was 0.86.
For NDQANYSLNTD [ADA_Y290], the phosphorylation enrichment was 0.814.
Sequence GVYSRYFTTYD [CLCA1_Y661] has a phosphorylation enrichment of 0.955.
EFNINYNNELP [THG1L_Y228] was tested, and the phosphorylation enrichment was 0.444.
For LRLFSYSTTIR [CYP7B1_Y365_S363F], the phosphorylation enrichment was 0.663.
NTGNFYDLFGG [PTPN11_Y63_D61N_YF] gave a phosphorylation enrichment of 0.766.
KDHPDYKFPPR [SOX10_Y171_Q174P_YF] gave a phosphorylation enrichment of 0.52.
